US20170081400A1 (CEPHALON, published 2017)
Positions count from the first letter of the chain named.

T1: human TL1A extracellular domain with N-terminal HIS and FLAG tag (human, UniProt O95150 72-251)
T1 construct: the whole entry is named
T1 sequence: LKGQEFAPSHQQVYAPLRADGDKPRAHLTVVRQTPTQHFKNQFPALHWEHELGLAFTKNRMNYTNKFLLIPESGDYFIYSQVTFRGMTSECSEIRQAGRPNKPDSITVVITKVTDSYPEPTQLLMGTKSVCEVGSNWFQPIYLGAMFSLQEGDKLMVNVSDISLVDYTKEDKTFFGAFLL

B1: 320-403 (antibody, human IgG1, name in Kabat numbering, V domains shown)
VH: QVQLVQSGAEVKKPGASVKVSCKASGWTFTSYDINWVRQAPGQGLEWMGWLNPNSGNTGYAQKFQGRVTMTADRSTSTAYMELSSLRSEDTAVYYCAREVPETAAFEYWGQGTLVTVSS
VL: QSVLTQPPSVSGAPGQRVTISCTSSSSDIGAGLGVHWYQQLPGTAPKLLIEGYYNRPSGVPDRFSGSKSGTSASLTITGLLPEDEGDYYCQSYDGTLSALFGGGTKLTVLG
notes: human IgG1, lambda
B2: 320-414 (antibody, human IgG1, name in Kabat numbering, V domains shown)
VH: B1 VH with W27Y, F29S
VL: B1 VL
notes: human IgG1, lambda
B3: 320-418 (antibody, human IgG1, name in Kabat numbering, V domains shown)
VH: B1 VH with W27Y, F29K
VL: B1 VL
notes: human IgG1, lambda
B4: 320-427 (antibody, human IgG1, name in Kabat numbering, V domains shown)
VH: B1 VH with W27Y, T30K
VL: B1 VL
notes: human IgG1, lambda
B5: 320-404 (antibody, human IgG1, name in Kabat numbering, V domains shown)
VH: B1 VH with W27Y, T28A
VL: B1 VL
notes: human IgG1, lambda
B6: 320-416 (antibody, human IgG1, name in Kabat numbering, V domains shown)
VH: B1 VH with W27Y, F29D
VL: B1 VL
notes: human IgG1, lambda
B7: 320-405 (antibody, human IgG1, name in Kabat numbering, V domains shown)
VH: B1 VH with W27Y, T28S
VL: B1 VL
notes: human IgG1, lambda
B8: 320-417 (antibody, human IgG1, name in Kabat numbering, V domains shown)
VH: B1 VH with W27Y, F29H
VL: B1 VL
notes: human IgG1, lambda
B9: 320-425 (antibody, human IgG1, name in Kabat numbering, V domains shown)
VH: B1 VH with W27Y, T30D
VL: B1 VL
notes: human IgG1, lambda
B10: 320-423 (antibody, human IgG1, name in Kabat numbering, V domains shown)
VH: B1 VH with W27Y, T30S
VL: B1 VL
notes: human IgG1, lambda
B11: 320-408 (antibody, human IgG1, name in Kabat numbering, V domains shown)
VH: B1 VH with W27Y, T28H
VL: B1 VL
notes: human IgG1, lambda
B12: 320-410 (antibody, human IgG1, name in Kabat numbering, V domains shown)
VH: B1 VH with W27Y, T28L
VL: B1 VL
notes: human IgG1, lambda
B13: 320-413 (antibody, human IgG1, name in Kabat numbering, V domains shown)
VH: B1 VH with W27Y, F29A
VL: B1 VL
notes: human IgG1, lambda
B14: 320-424 (antibody, human IgG1, name in Kabat numbering, V domains shown)
VH: B1 VH with W27Y, T30Q
VL: B1 VL
notes: human IgG1, lambda
B15: 320-428 (antibody, human IgG1, name in Kabat numbering, V domains shown)
VH: B1 VH with W27Y, T30L
VL: B1 VL
notes: human IgG1, lambda
B16: 320-426 (antibody, human IgG1, name in Kabat numbering, V domains shown)
VH: B1 VH with W27Y, T30H
VL: B1 VL
notes: human IgG1, lambda
B17: 320-419 (antibody, human IgG1, name in Kabat numbering, V domains shown)
VH: B1 VH with W27Y, F29L
VL: B1 VL
notes: human IgG1, lambda
B18: 320-411 (antibody, human IgG1, name in Kabat numbering, V domains shown)
VH: B1 VH with W27Y, T28W
VL: B1 VL
notes: human IgG1, lambda
B19: 320-406 (antibody, human IgG1, name in Kabat numbering, V domains shown)
VH: B1 VH with W27Y, T28Q
VL: B1 VL
notes: human IgG1, lambda
B20: 320-431 (antibody, human IgG1, name in Kabat numbering, V domains shown)
VH: B1 VH with W27Y, S31A
VL: B1 VL
notes: human IgG1, lambda
B21: 320-415 (antibody, human IgG1, name in Kabat numbering, V domains shown)
VH: B1 VH with W27Y, F29Q
VL: B1 VL
notes: human IgG1, lambda
B22: 320-430 (antibody, human IgG1, name in Kabat numbering, V domains shown)
VH: B1 VH with W27Y, T30Y
VL: B1 VL
notes: human IgG1, lambda
B23: 320-412 (antibody, human IgG1, name in Kabat numbering, V domains shown)
VH: B1 VH with W27Y, T28Y
VL: B1 VL
notes: human IgG1, lambda
B24: 320-429 (antibody, human IgG1, name in Kabat numbering, V domains shown)
VH: B1 VH with W27Y, T30W
VL: B1 VL
notes: human IgG1, lambda
B25: 320-420 (antibody, human IgG1, name in Kabat numbering, V domains shown)
VH: B1 VH with W27Y, F29W
VL: B1 VL
notes: human IgG1, lambda
B26: 320-409 (antibody, human IgG1, name in Kabat numbering, V domains shown)
VH: B1 VH with W27Y, T28K
VL: B1 VL
notes: human IgG1, lambda
B27: 320-422 (antibody, human IgG1, name in Kabat numbering, V domains shown)
VH: B1 VH with W27Y, T30A
VL: B1 VL
notes: human IgG1, lambda
B28: 320-407 (antibody, human IgG1, name in Kabat numbering, V domains shown)
VH: B1 VH with W27Y, T28D
VL: B1 VL
notes: human IgG1, lambda

Experiments:
[1] = target: T1, human TL1A extracellular domain with …; experiment: SPR Run 5, Ab from supernatant captured on Protein A, TL1A 5 ug/mL, timepoint 44
Text: (§1) 1.5. Antibody expression and antigen binding as determined by SPR. Using a CM5 sensor chip (GE Healthcare) Protein A (Pierce) was coupled to the chip surface using an amine coupling kit (GE Healthcare). Protein A was coupled on flow cell 1 and 2 (or alternatively 3 and 4) using a BIACORE® T200. […] The amount of supernatant or purified protein (as well as the concentration) injected during the capture stage varied between runs and is specified in the header of the Tables 3-11. At the end of injection of the supernatant or purified antibody the change in response units was measured. This value was reported as Capture Level in Tables 3-11. […] The response units were measured prior to the end of the dissociation phase. […] The sensorgrams were double referenced (flow cell 2 is subtracted from flow cell 1 and a buffer blank). As there were a large number of antibody variants to screen, these were screened across different runs (Tables 3-11). […] A summary of the conditions used in each run is below:
(§2) 2.1. […] In some experiment the antibodies were purified using Protein A chromatography (See 1.4) and purified antibodies were used in BIACORE® (GE Healthcare) experiments.

[2] = target: T1, human TL1A extracellular domain with …; experiment: SPR Run 5, Ab from supernatant captured on Protein A, TL1A 5 ug/mL, timepoint 220
Text: as §1, §2

Binder | TL1A Binding Level (Early) [1] [RU] | TL1A Binding Level (Late) [2] [RU]
B1 | 11 | 10
B2 | 7 | 7
B3 | 10 | 9
B4 | 11 | 10
B5 | 11 | 10
B6 | 9 | 8
B7 | 10 | 9
B8 | 9 | 8
B9 | 14 | 12
B10 | 10 | 10
B11 | 13 | 12
B12 | 11 | 10
B13 | 9 | 8
B14 | 11 | 10
B15 | 11 | 10
B16 | 10 | 9
B17 | 11 | 9
B18 | 10 | 9
B19 | 8 | 7
B20 | 6 | 6
B21 | 5 | 4
B22 | 6 | 6
B23 | 10 | 9
B24 | 12 | 11
B25 | 11 | 10
B26 | 10 | 10
B27 | 10 | 9
B28 | 12 | 11
